Results taken from patent US11015206B2, “Compositions and methods comprising sequences having hydroxyphenylpyruvate dioxygenase (HPPD) activity” (PIONEER HI-BRED INTERNATIONAL, INC., priority 2014, dated 2021).

Assays:
Format in all cases: biochemical, Z. mays
[1] = test system: 4-hydroxyphenylpyruvate dioxygenase (HPPD); test: Estimate of kcat from initial rate at saturating hydroxyphenylpyruvate without inhibitor (ON rate ratio assay)
In short: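 Reactions used 60 or 120 nM HPPD and saturating 100 μM hydroxyphenylpyruvate without inhibitor. kcat was estimated from the initial rate at the known enzyme concentration.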

[2] = test system: 4-hydroxyphenylpyruvate dioxygenase (HPPD); test: OFF rate ratio: release of inhibitor from pre-formed enzyme-inhibitor complex; conditions: Table 7; tembotrione; combinatorial variants
In short: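 HPPD (7.2 μM) pre-incubated 1 h at RT with inhibitor (8 μM), then diluted into 25 mM Hepes pH 7, 2 mM ascorbate, 10 μM FeSO4, 100 μM HPP, 50 nM HGD; A320 followed 12 min. Ratio = steady-state rate with inhibitor over initial rate of inhibitor-free enzyme.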

[3] = test system: 4-hydroxyphenylpyruvate dioxygenase (HPPD); test: Insensitivity parameter (ON × OFF) and trait fitness (ON × OFF × kcat/KM or × kcat); set-up: key to ON × OFF / Insensitivity, mesotrione, ON × OFF / Insensitivity, tembotrione, ON × OFF / Insensitivity, topramezone, ON × OFF / Insensitivity, sulcotrione, ON × OFF / Insensitivity, isoxaflutole (DKN), ON × OFF: insensitivity = ON rate ratio × OFF rate ratio (surrogate for KD)
In short: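 Calculated, not measured directly: ON rate ratio × OFF rate ratio gives an insensitivity parameter serving as a KD surrogate.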

[4] = test system: 4-hydroxyphenylpyruvate dioxygenase (HPPD); test: ON rate ratio: HPPD reaction rate with vs without inhibitor in the 70 to 90 second interval; conditions: Table 7; tembotrione; combinatorial variants
In short: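 Time courses of HPPD reactions, 60 or 120 nM enzyme with 100 μM HPP substrate, run with and without 4 μM inhibitor (e.g. mesotrione, tembotrione). Value is the rate with inhibitor over rate without, taken over 70–90 s; higher ratio reflects slower kON.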

[5] = Table 7, combinatorial variants
[6] = Table 7, tembotrione, combinatorial variants

| Molecule | kcat ([1]; Megatable 3, shuffled variants) [s⁻¹] | kcat [1, 5] [s⁻¹] | OFF rate ratio [2] | ON × OFF ([3]; Megatable 3, shuffled variants) | ON × OFF × kcat ([3]; Megatable 3, shuffled variants) | ON × OFF [3, 6] | ON × OFF × kcat [3, 6] | ON rate ratio [4] |
| --- | --- | --- | --- | --- | --- | --- | --- | --- |
| Mz wt (protein, Zea mays) MGPTPTAAAAGAAVAAASAAEQAAFRLVGHRNFVRFNPRSDRFHTLAFHHVELWCADAASAAGRFSFGLGAPLAARSDLSTGNSAHASLLLRSGSLSFLFTAPYAHGADAATAALPSFSAAAARRFAADHGLAVRAVALRVADAEDAFRASVAAGARPAFGPVDLGRGFRLAEVELYGDVVLRYVSYPDGAAGEPFLPGFEGVASPGAADYGLSRFDHIVGNVPELAPAAAYFAGFTGFHEFAEFTTEDVGTAESGLNSMVLANNSENVLLPLNEPVHGTKRRSQIQTFLDHHGGPGVQHMALASDDVLRTLREMQARSAMGGFEFMAPPTSDYYDGVRRRAGDVLTEAQIKECQELGVLVDRDDQGVLLQIFTKPVGDRPTLFLEIIQRIGCMEKDEKGQEYQKGGCGGFGKGNFSQLFKSIEDYEKSLEAKQAAAAAAAQGS | 1.62 | 1.62 | 0.033 | 0.007 | 0.68 | 0.007 | 0.68 | 0.213 |
| P056028-E-07 (protein, Zea mays variant form created by artificial means.) MGPTPTATAAGAAVAAASAAEQAAFRLVGHRNFVRFNPRSDRFQTLAFHHVELWCADAASAAGRFSFALGVPLAARSDLSTGNSAHASLLLRSGSLSLLFTAPYAHGADAATAALPSFSAAAARRFAADHGLAVRAVALRVADAEDAFRASVAAGARPAFGPVDLGRGFRLAEVELYGDVVLRYVSYPDGAAGEPFLPGFEGVASPGAADLGLSRFDHIVGNVPELAPAAAYMAGFTGFHEFAEFTTEDVGTTESGLNSMALANNSENVLLPLNEPVHGTKRRSQIQTFLDHHGGPGVQHIALASDDVLRTLREMRARSAMGGFEFLPPPLSDYYDGVRRCAGDVLTEAQINECQELGVMVDRDDEGVLLQIFTKPVGDRPTFFLEIIQRIGCMEKDEKGQEYQKGGCGGFGKGNFQQLFKSIEDYEKSLEAKRAAAAATAQGS | 0.343 | 0.343 | 0.262 | 0.153 | 3.08 | 0.153 | 3.08 | 0.585 |
| P056028-F-10 (protein, Zea mays variant form created by artificial means.) MGPTPTATAAGAAVAAASAAEQAAFRLVGHRNFVRFNPRSDRFQTLAFHHVELWCADAASAAGRFSFALGVPLAARSDLSTGNSAHASLLLRSGSLSLLFTAPYAHGADAATAALPSFSAAAARRFAADHGLAVRAVALRVADAEDAFRASVAAGARPAFGPVDLGRGFRLAEVELYGDVVLRYVSYPDGGAGEPFLPGFEGVASPGAADYGLNRFDHIVGNVPELAPAAAYMAGFTGFHEFAEFTTEDVGTTESGLNSMALANNSENVLLPLNEPVHGTKRRSQIQTFLDHHGGPGVQHIALASDDVLRTLREMRARSAMGGFEFLPPPLSDYYDGVRKCAGDVLTEAQINECQELGVMVDRDDEGVLLQIFTKPVGDRPTFFLEIIQRIGCMEKDEKGQEYQKGGCGGFGKGNFGQLFKSIEDYEKSLEAKQAAAAATAQGS | 0.228 | 0.228 | 0.291 | 0.211 | 2.89 | 0.211 | 2.89 | 0.726 |
| P056028-E-09 (protein, Zea mays variant form created by artificial means.) MGPTPTATAAGAAVAAASAAEQAAFRLVGHRNFVRFNPRSDRFQTLAFHHVELWCADAASAAGRFSFALGVPLAARSDLSTGNSAHASLLLRSGSLSLLFTAPYAHGADAATAALPSFSAAAARRFAADHGLAVRAVALRVADAEDAFRASVAAGARPAFGPVDLGRGFRLAEVELYGDVVLRYVSYPDGGAGEPFLPGFEGVASQGAADYGLSRFDHIVGNVPELAPAAAYMAGFTGFHEFAEFTTEDVGTTESGLNSMALANNSENVLLPLNEPVHGTKRRSQIQTFLDHHGGPGVQHIALASDDVLRTLREMRARSAMGGFEFLPPPLSDYYDGVRKCAGDVLTEAQINECQELGVMVDRDDEGVLLQIFTKPVGDRPTFFLEIIQRIGCMEKDEKGQEYQKGGCGGFGKGNFGQLFKSIEDYEKSLEAKQAAAAATAQGS | 0.248 | 0.248 | 0.308 | 0.208 | 3.10 | 0.208 | 3.10 | 0.676 |
| P056028-F-03 (protein, Zea mays variant form created by artificial means.) MGPTPTATAAGAAVAAASAAEQAAFRLVGHRNFVRFNPRSDRFQTLAFHHVELWCADAASAAGRFSFALGVPLAARSDLSTGNSAHASLLLRSGSLSLLFTAPYAHGADAATAALPSFSAAAARRFAADHGLAVRAVALRVADAEDAFRASVAAGARPAFGPVDLGRGFRLAEVELYGDVVLRYVSYPDGGAGEPFLPGFEGVASPGAADYGLSRFDHIVGNVPELAPAAAYMAGFTGFHEFAEFTTEDVGTTESGLNSMALANNSENVLLPLNEPVHGTKRRSQIQTFLDHHGGPGVQHIALASDDVLRTLREMRARSAMGGFEFLPPPLSDYYDGVRRCAGDVLTEAQINECQELGVMVDRDDEGVLLQIFTKPVGDRPTFFIEIIQRIGCTEKDEKGQEYQKGGCGGFGKGNFSQLFKSIEDYEKSLEAKQAAAAATAQGS | 0.217 | 0.217 | 0.491 | 0.363 | 4.73 | 0.363 | 4.73 | 0.738 |
| P056028-E-08 (protein, Zea mays variant form created by artificial means.) MGPTPTATAAGAAVAAASAAEQAAFRLVGHRNFVRFNPRSDRFQTLAFHHVELWCADAASAAGRFSFALGVPLAARSDLSTGNSAHASLLLRSGSLSLLFTAPYAHGADAATAALPSFSAAAARRFAADHGLAVRAVALRVADAEDAFRASVAAGARPAFGPVDLGRGFRLAEVELYGDVVLRYVSYPDGAAGEPFLPGFEGVASPGAADYGLSRFDHIVGNVPELAPAAAYMAGFTGFHEFAEFTTEDVGTTESGLNSMALANNSENVLLPLNEPVHGTKRRSQIQTFLDHHGGPGVQHIALASDDVLRTLREMRARSAMGGFEFLPPPLSDYYDGVRRCAGDVLTEAQINECQRLGVMVDRDDEGVLLQIFTKPVGDRPTFFLEIIQRIGCMEKDEKGQEYQKGGCGGFGKGNFGQLFKSIEDYEKSLEAKQAAAAATAQGS | 0.21 | 0.21 | 0.410 | 0.281 | 3.55 | 0.281 | 3.55 | 0.685 |
| P056028-F-11 (protein, Zea mays variant form created by artificial means.) MGPTPTATAAGAAVAAASAAEQAAFRLVGHRNFVRFNPRSDRFQTLAFHHVELWCADAASAAGRFSFALGVPLAARSDLSTGNSAHASLLLRSGSLSLLFTAPYAHGADAATAALPSFSAAAARRFAADHGLAVRAVALRVADAEDAFRASVAAGARPAFGPVDLGRGFRLAEVELYGDVVLRYVSYPDGGAGEPFLPGFEGVASPGAADYGLSRFDHIVGNVPELAPAAAYMAGFTGFHEFAEFTTEDVGTTESGLNSMALANDSENVLLPLNEPVHGTKRRSQIQTFLDHHGGPGVQHIALASDDVLRTLREMRARSAMGGFEFLPPPLSDYYDGVRRCAGDVLTEAQINECQELGVMVDRDDEGVLLQIFTKPVGDRPTFFLEIIQRIGCMEKDEKGQEYQKGGCGGFGKGNFGQLFKSIEDYEKSLEAKQAAAAATAQGS | 0.368 | 0.368 | 0.322 | 0.228 | 5.04 | 0.228 | 5.04 | 0.706 |
| P056028-F-04 (protein, Zea mays variant form created by artificial means.) MGPTPTATAAGAAVAAASAAEQAAFRLVGHRNFVRFNPRSDRFQTLAFHHVELWCADAASAAGRFSFALGVPLAARSDLSTGNSAHASLLLRSGSLSLLFTAPYAHGADAATAALPSFSAAAARRFAADHGLAVRAVALRVADAEDAFRASVAAGARPAFGPVDLGRGFRLAEVELYGDVVLRYVSYPDGAAGEPFLPGFEGVASPGAADYGLSRFDHIVGNVPELAPAAAYMAGFTGFHEFAEFTTEDVGTTESGLNSMALANNSENVLLPLNEPVHGTKRRSQIQTFLDHHGGPGVQHIALASDDVLRTLREMRARSAMGGFEFLPPPLSDYYDGVRRCAGDVLTEAQINECQELGVMVDRDDEGVLLQIFTKPVGDRPTFFLELIQRIGCMEKDEKGQEYQKGGCGGFGKGNFGQLFKSIEDYEKSLEAKQAAAAATAQGS | 0.278 | 0.278 | 0.245 | 0.161 | 2.70 | 0.161 | 2.70 | 0.660 |
